Experiments:
[1] = cycloheximide chase, western blot; conditions: glycan lost; control: NRP1-WT
[2] = confocal, Met co-internalisation with NRP1, HT29; conditions: glycan lost; control: NRP1-WT
[3] = confocal, EEA1/Rab7 co-localisation, 10% FBS medium; conditions: glycan lost; control: NRP1-WT
[4] = confocal, surface delivery; 24 h transient or serum-free; conditions: glycan lost; control: NRP1-WT
[5] = confocal, β1-integrin co-internalisation with NRP1, HT29; conditions: glycan lost; control: NRP1-WT
[6] = confocal, HGF-stimulated endocytosis after serum starvation; conditions: glycan lost; control: NRP1-WT
[7] = confocal, HT29 NRP1-WT cells, 24 h treatment; conditions: control: DMSO

Row | Substance | degradation_or_half_life [1] | localisation_or_trafficking [2] | localisation_or_trafficking [3] | localisation_or_trafficking [4] | localisation_or_trafficking [5] | localisation_or_trafficking [6] | localisation_or_trafficking ([7]; glycan changed form) | localisation_or_trafficking ([7]; glycan lost)
1 | Neuropilin-1 (NRP1): N150Q | increases | increases | changes | no change | increases | increases | – | –
2 | Neuropilin-1 (NRP1): N150Q/N261Q | increases | – | changes | – | – | – | – | –
3 | Neuropilin-1 (NRP1): N261Q | increases | increases | changes | no change | increases | increases | – | –
4 | Neuropilin-1 (NRP1): N300Q | no change | – | no change | – | – | no change | – | –
5 | Neuropilin-1 (NRP1): N522Q | no change | – | no change | – | – | no change | – | –
6 | Neuropilin-1 (NRP1): N842Q | no change | – | no change | – | – | no change | – | –
7 | Neuropilin-1 (NRP1): S612A | no change | – | no change | – | – | no change | – | –
8 | Neuropilin-1 (NRP1): swainsonine | – | – | – | – | – | – | changes | –
9 | Neuropilin-1 (NRP1): tunicamycin | – | – | – | – | – | – | – | changes

Reference: publication PMC6697747
